In one data set the target is T1, FAHD1 (Homo sapiens, UniProt Q6P587).
T1 construct: His-tag (N); S-tag (N); made in house; host or cells: E. coli
T1 sequence (Q6P587 25-221): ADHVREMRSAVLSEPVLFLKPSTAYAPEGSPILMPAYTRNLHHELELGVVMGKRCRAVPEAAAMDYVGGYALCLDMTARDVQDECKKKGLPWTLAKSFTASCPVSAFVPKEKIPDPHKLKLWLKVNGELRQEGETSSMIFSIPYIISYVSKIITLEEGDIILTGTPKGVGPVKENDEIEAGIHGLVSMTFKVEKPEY
Nature of the data set: oxalate inhibitor assay (oxaloacetate decarboxylase assay). The format is biochemical. As to conditions: purified recombinant wild-type FAHD1, room temperature, pH 7.4, absorbance 255 nm, FIG. 2C; read-out: IC50, inhibition of oxaloacetate decarboxylation by FAHD1. On the procedure: (§1) N-terminally His- and S-tagged versions of human wild-type FAHD1 and a double mutant (Asp102Ala, Arg106Ala) were recombinantly expressed in E. coli and purified as reported previously (Pircher et al., J Biol Chem, 2011, 286(42)).
(§2) For measurement of oxaloacetate decarboxylase rates, 1 ml samples of 25 μM to 1 mM oxaloacetate in assay buffer (50 mM Tris-HCl, 100 mM KCl, 1 mM MgCl2, pH 7.4) containing purified FAHD1, FAHD1mut (3-60 μg, depending on substrate concentration) or no enzyme were prepared. Samples were incubated at room temperature and analysed in regular time intervals by measuring absorbance (infinite M200, Tecan) at 255 nm (ε=1070 M^−1 cm^−1) in disposable UV-cuvettes (Brand). Reaction mixtures containing no substrate were used as blank. For the oxalate inhibitor assay, the sample buffer was supplemented with 200 μM sodium oxalate. All rates were corrected for auto-decarboxylation under assay conditions.

Data set [1] is described as follows: oxaloacetate decarboxylase assay, photometric, enzyme kinetics of purified FAHD1. The class given is biochemical, human. Conditions: purified wild-type enzyme, room temperature, pH 7.4, FIG. 2A. On the procedure:
as §1, §2

Usually IC50 stands for the concentration needed to halve the response being measured. The Km is the concentration of substrate that gives half-maximal velocity.

For `O=C([O-])C(=O)[O-].[Na+].[Na+]` [oxalate, sodium oxalate], on FAHD1, the IC50 was ~20 µM.

B1: fumarylacetoacetate hydrolase domain containing protein 1 (protein, UniProt Q6P587 25-221, looked up)
Oxaloacetate tautomerase …: ADHVREMRSAVLSEPVLFLKPSTAYAPEGSPILMPAYTRNLHHELELGVVMGKRCRAVPEAAAMDYVGGYALCLDMTARDVQDECKKKGLPWTLAKSFTASCPVSAFVPKEKIPDPHKLKLWLKVNGELRQEGETSSMIFSIPYIISYVSKIITLEEGDIILTGTPKGVGPVKENDEIEAGIHGLVSMTFKVEKPEY
notes: recombinant human wild-type FAHD1 expressed in E. coli
Turning to B1, in data set [1], the Km came out at 32 µM and the “Vmax of oxaloacetate degradation” value came out at 0.21 µmol/min/mg.
